What was measured:
[1] = molecular target: T1, consolidated ligand NH2-PVpYENVG6>(PPAYPPPPVPKCONH2) (Homo sapiens, UniProt P00519, C100A/N120G/S121C); experiment: Fluorescence-based titration binding assay; conditions: consolidated ligand binding both SH3 and SH2 domains; read-out: equilibration dissociation constant (Kd) for binding to the ligand
T1 construct: intein-CBD (on the SH3 segment, removed on thioester formation) (C, cleaved yes); GST-SH3-IEGR (upstream of the SH2 segment, removed by thrombin and Factor Xa) (N, cleaved yes); made in house; host or cells: E. coli (BL21 for SH3-intein-CBD, DH5-α for the GST fusion that gives SH2)
Description: Under these conditions, no protein precipitation was observed and NMR analysis indicated the sample had adopted a native fold. A similar strategy was therefore used to prepare the complete [SH2-^15N]SH(32) construct for functional and structural analysis. The binding affinity of Abl-[SH2^15N]SH(32) for the consolidated ligand, NH2-PVpYENVG6>(PPAYPPPPVPKCONH2) (SEQ ID NOs: 5 and 6, respectively), which binds both the SH3 and the SH2 domains simultaneously (78) was studied using a fluorescence-based titration assay. (The C-terminal glycyl residue is linked to the N ε of lysyl in the second peptide segment). […] This affinity is characteristic of the dual domain construct.
Fluorescence Binding Assay: The equilibrium dissociation constants of the protein constructs for the consolidated ligand were determined using the previously describedfluorescence-based titration assay (78). The binding constant for the segment labeled construct was 300 (±100) nM. Experiments were performed on a Spex Fluorolog-3 spectrophotometer fitted with a Neslab temperature control unit.

poly(glu,tyr) [2] = experiment: Csk kinase assay, transfer of 32P from γ-32P-ATP to poly(glu,tyr); format: biochemical
Method: In each of the two ligation reactions, the crude product mixture was nearly free of unligated material, although both preparations were contaminated with GroEL and DnaK. Although yields were not optimized, an estimated 0.5 mg of ligation product per 2.5 L bacterial cell culture was produced. […] Kinase assays were performed as described by Cole et al., J. Biol. Chem. 269, 30880 (1994) where transfer of ^32P from γ-^32P-ATP to poly(glu,tyr) was monitored. Briefly, poly(glu,tyr) reactions were carried out in 60 mM Tris-HCl, pH 7.4, 2 mM MnCl2, 10 mM dithiothreitol, 200 μg/mL BSA for 2 minutes at 30° C., quenched with EDTA, run out on 10% SDSPAGE and phosphopoly(glu,tyr) analyzed by scintillation counting. […] Further characterization of (Csk^PEP) and (Csk^pPEP) by electrospray mass spectrometry gave molecular masses in good agreement with the predicted values (FIG. 2C).

poly(glu,tyr) [3] = molecular target: T2, poly(glu,tyr) (Homo sapiens, UniProt P41240); conditions: wild type Csk, reference (32), cited from earlier work
T2 construct: N-terminal methionine residue in the protein produced as an intein-CBD fusion was completely removed (no such cleavage is observed); Tyr unphosphorylated in Csk^PEP, phosphorylated in Csk^pPEP; made in house; host or cells: E. coli DH5α, co-expressed with GroES/GroEL

B1: Abl-[SH2^15N]SH(32): Ligated human Abl SH3-SH2 domain pair with G120 C121 mutations, only the SH2 domain 15N labeled (SEQ ID NO: 1) (protein)
chain: MLFVALYDFVASGDNTLSITKGEKLRVLGYNHNGEWAEAQTKNGQGWVPSNYITPVGCLEKHSWYHGPVSRNAAEYLLSSGINGSFLVRESESSPGQRSISLRYEGRVYHYRINTASDGKLYVSSESRFNTLAELVHHHSTVADGLITTLHYPAPKRGIHRD
modifications: 15N label on SH2 domain
Kd [1]: 300 nM

B2: wild type Csk: Full-length wild-type human C-terminal Src kinase, 50 kDa protein (protein, UniProt P41240 1-450, looked up)
chain: MSAIQAAWPSGTECIAKYNFHGTAEQDLPFCKGDVLTIVAVTKDPNWYKAKNKVGREGIIPANYVQKREGVKAGTKLSLMPWFHGKITREQAERLLYPPETGLFLVRESTNYPGDYTLCVSCDGKVEHYRIMYHASKLSIDEEVYFENLMQLVEHYTSDADGLCTRLIKPKVMEGTVAAQDEFYRSGWALNMKELKLLQTIGKGEFGDVMLGDYRGNKVAVKCIKNDATAQAFLAEASVMTQLRHSNLVQLLGVIVEEKGGLYIVTEYMAKGSLVDYLRSRGRSVLGGDCLLKFSLDVCEAMEYLEGNNFVHRDLAARNVLVSEDNVAKVSDFGLTKEASSTQDTGKLPVKWTAPEALREKKFSTKSDVWSFGILLWEIYSFGRVPYPRIPLKDVVPRVEKGYKMDAPDGCPPAVYEVMKNCWHLDAAMRPSFLQLREQLEHIKTHELHL
modifications: full-length
notes: Full-length wild-type human C-terminal Src kinase, 50 kDa protein
catalytic activity (kinase assay) (poly(glu,tyr) [2]): fully active
Km of poly(glu,tyr) (poly(glu,tyr) [3]): 48 ± 2 µg/mL
kcat (poly(glu,tyr) [3]): 0.667 ± 0.083 s⁻¹
Km (poly(glu,tyr) [3]; read-out: Km of ATP): 12 ± 1 µM
